{
  "source": "paper PMC9138545",
  "about": "“Incorporation of Oxidized Phenylalanine Derivatives into Insulin Signaling Relevant Proteins May Link Oxidative Stress to Signaling Conditions Underlying Chronic Insulin Resistance” (Biomedicines, 2022)",
  "key": {"[1]": {"target": "C-terminal SH2 domain of PI3K regulatory subunit 1 (UniProt P27986)", "sequence (P27986 614-724)": "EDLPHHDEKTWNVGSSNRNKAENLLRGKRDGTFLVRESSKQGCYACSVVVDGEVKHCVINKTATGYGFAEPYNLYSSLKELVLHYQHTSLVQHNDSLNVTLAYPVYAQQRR", "experiment": "FP"}, "[2]": {"target": "N-terminal SH2 domain of PI3K regulatory subunit 1 (UniProt P27986)", "sequence (P27986 321-433)": "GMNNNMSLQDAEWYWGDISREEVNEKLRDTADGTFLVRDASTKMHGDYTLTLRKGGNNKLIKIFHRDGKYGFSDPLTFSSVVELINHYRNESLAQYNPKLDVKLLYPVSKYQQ", "experiment": "FP"}},
  "data": [
    {"substance": "phospho-ortho-Tyr IRS-1 peptide GRKGSGD(pY)MPMSPKV", "values": [
      {"measurement": "Kd", "setting": "[1]", "value": "> 40", "unit": "µM"},
      {"measurement": "Kd", "setting": "[2]", "value": "> 150", "unit": "µM"}
    ]},
    {"substance": "phospho-meta-Tyr IRS-1 peptide GRKGSGD(pY)MPMSPKV", "values": [
      {"measurement": "Kd", "setting": "[1]", "value": 6.5, "unit": "µM"},
      {"measurement": "Kd", "setting": "[2]", "value": 53.2, "unit": "µM"}
    ]}
  ]
}
